Data as given in the RNAGym collection of RNA variant scans (doi:10.1073/pnas.2313332121).
This sample holds only a part of the variants without activity.

B1: TPR 5TU (parent)
chain: GGAUCUUCUCGAUCUAACAAAAAAGACAAAUCUGCCACAAAGCUUGAGAGCAUCUUCGGAUGCAGAGGCGGCAGCCUUCGGUGGCGCGAUAGCGCCAACGUUCUCAACUAUGACACGCAAAACGCGUGCUCCGUUGAAUGGAGUUUAUCAUG

Variants of: B1
Experiment: polymerase ribozyme fitness, log enrichment relative to wild type (log ratio); higher = more active; in vitro selection for triplet polymerase activity
Outline: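 Both subunits of a heterodimeric triplet polymerase ribozyme were given their own mutant library, built by PCR and transcribed. Each library was annealed with a biotinylated primer, the partner subunit and triplets, incubated frozen at −7 °C, and its extended constructs gel-excised, captured on streptavidin beads and amplified by RT-PCR, all in one round done in triplicate. Fitness is the logarithm of genotype enrichment relative to wild-type enrichment, with replicates averaged by inverse-variance weighting. That logarithm is base 2, and Illumina-sequenced genotypes needed ≥10 input reads and ≥1 read per output.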

Variant | polymerase ribozyme fitness (log ratio)
G50U C95A U109G | -3.26
C51U G58U U82G C96U | -0.59
A49C C96G | -3.45
G50U U61G C108U U135A | ≤ -4.2
G50U G81A C96G A142U | -2.59
G50A U53A C85A U109G A115G C116G G126C | ≤ -4.2
C51U G68U C87U U145C | ≤ -4.2
G50U C95A C125G | -0.894
G50C U55G G67A C75A C87U U134G A137G | ≤ -4.2
A49U A150U | -0.0151
G50U G84U | -1.81
G50C C87G | ≤ -4.2
A49C U55G U61A C96A U111G A119U U148C | ≤ -4.2
A49C G71A | ≤ -4.2
A49U A52G C96U C99G | ≤ -4.2
G50C U56A G59C | -3.03
C51U U53C C63U G74C G86C A89U A113U | ≤ -4.2
G50U C87U C114A | -3.78
G50A C54U C85U G92U U148A | ≤ -4.2
G50A C79U A138G | ≤ -4.2
C51U A66C G74A U90G U111G | ≤ -4.2
C51G G94A U135A | -3.11
A49G U53A G59A A142U | -2.64
A49U G58C G124U | -1.3

Variant | polymerase ribozyme fitness (log ratio)
C51U C95G C105G G117U | -3.53
C51U C79U | -3.01
G50U C95G U104A | -1.95
G50A U56A G88C A106G | ≤ -4.2
C51U G58A G92C G136A U148C | -3.3
G50A G88A C95U C123G U139G U151G | ≤ -4.2
G50C G80A C85U C87U C108U | ≤ -4.2
G50U C57A C76A A122U C131G | ≤ -4.2
C51A C118U G152A | -3.06
A49C C93U | ≤ -4.2
G50A C95A U111A U135A | ≤ -4.2
A49C U56A C69A C99A | ≤ -4.2
G50U C72U A97C | -0.611
A52C C54U U78A C87U U135A | ≤ -4.2
A49U G50A C85G C116G A121U | -1.16
G50A U55A A97C A147U U148A | ≤ -4.2
A52C A73G G84U A115G C123G G124C C129A | ≤ -4.2
A49U C57U C93G C103G U144C | ≤ -4.2
A49C U55G C76U C87A C99U C105U A120U | ≤ -4.2
G50A C118U A122G A137G A147U | -2.53
G50U G84A U148G | ≤ -4.2
A49C C116A G143C | ≤ -4.2
A49G A52C G86C | -3.61
G50A U55G A97G U102G | -3.43

Variant | polymerase ribozyme fitness (log ratio)
C51G A115C A122U | -3.82
C51U G62C G70A A115U C116A | ≤ -4.2
A49C U109G | ≤ -4.2
G50A C75U G83U C93U G141A | ≤ -4.2
A49C U55G A60U G65A G74C U77A | ≤ -4.2
C51A A52G G68A A142C U144A | ≤ -4.2
A52C C57U U102G U146G | ≤ -4.2
A52C C54U | -1.87
A49U A66G G84A C87U A98G | ≤ -4.2
C51G A60G | -1.74
G50A C76A C96U | -3.13
C51A G94C A107U | ≤ -4.2
C51U C72U G80A C85A U109G | ≤ -4.2
A49U G50A | -0.047
G50A G128U | -3.21
C51A C54G G59C G84A C116G | -3.63
C51U C63U G83C U151C | ≤ -4.2
G50U U77A C87A | ≤ -4.2
A52C C57A C69U C85U | -3.07
A49U C96A | -3.45
G50A A52C C72G A97C C99A U139C G143A | ≤ -4.2
C51G U53A G83C C118U G128A | ≤ -4.2
G50C G74C A120G G124U G126A | ≤ -4.2
G50A C57G G81A C85U C116U | -2.31

Variant | polymerase ribozyme fitness (log ratio)
A49U G59A C85A | -3.41
C51A U61A C95U | -2.06
A49G G50A G84A A97G | -3.11
G50A G70A C75A | ≤ -4.2
G50C A89U G94U C96U A115G | ≤ -4.2
A49U G84U A97C G126C A138G A150G | ≤ -4.2
C51U C103A | -1.29
C51U U53A A110C C116A | ≤ -4.2
G50A A98U G126A | -1.26
C51U G92A | -3.5
C51A C85A | -2.75
G50A C57U C76U C125U A142C U144G A150G | -3.98
A49G C51G U78C C96G | -4.14
A49C U146A | -3.98
G50C U134A | -3.17
A52C C69A C87U U90C A142U | ≤ -4.2
G50A G88U U127C | ≤ -4.2
A49U G58C C75G C118G G124A | ≤ -4.2
C51G U53G C75A C103A | ≤ -4.2
G50C C123U | -2.4
C51A G81A A147G U148G | ≤ -4.2
G50A C54G U77G A97U A120G | ≤ -4.2
A49U C54U G88C U90A C114U A142C | ≤ -4.2
C51A A89C C93U G117U A137U A150C | ≤ -4.2

Variant | polymerase ribozyme fitness (log ratio)
A52C | -0.883
A49G G58C | -0.689
C51G U56A G68A C93U A97G U104G G143A U146A | ≤ -4.2
A49G A66G G71C C87G C95G A120G G124C A142U | ≤ -4.2
G50A C75U A91U A150C | ≤ -4.2
G50A G136U | -2.96
G50C G86U U111G | ≤ -4.2
G50A G136U U144G U146C | -2.38
A49C U145G | ≤ -4.2
G50C C87U A122U | -3.11
G50C G65A | -3.27
A49G U53A | -1.54
C51U U55A C75A C85U U101A C114U A115G G124A | ≤ -4.2
A49G G50A U56A C95U U101C U111G | ≤ -4.2
G50U A122G U148A | -3.37
C51U G143U | -2.3
G50C C95A | -2.7
C51U U134C | -0.745
A49U G84U A97G C114G | ≤ -4.2
G50U A113C U139G | -3.93
A49U A73U G88A C105A U144A | ≤ -4.2
G50A A64G | -3.77
A49U G67A C95U C114G A142C | ≤ -4.2
C51A G92U | -1.06

Variant | polymerase ribozyme fitness (log ratio)
C51G G94C C149U | -3.9
A49U U55A U56G | -1.76
C51A C95U A97U | -2.64
C51A A60G A89U | -1.65
G50U G58A | 0.88
G50A C116A | -0.537
C51A G94C | -1.47
G50C C87A C93A C99U A137U A138C | ≤ -4.2
A49G C69U | -1.39
C51U A115U | -2.12
A49U G68C | ≤ -4.2
C51A C96U | -1.91
A52C A142G | -1.98
A49G C85U G117U U135C G143C | -4.06
G50U A52C A107G | ≤ -4.2
G50U A91G | -2.52
G50U A91U | ≤ -4.2
A49C G81C C85U A98U U104C | ≤ -4.2
G50A A120G A122U A150U | -2.03
A49U C69U | -1.86
G50A A73U C87A U144A | ≤ -4.2
A52C A106G U139C | ≤ -4.2
A49C C99U U102G | -0.308
C51U G84A G117C U135A | -0.541

Variant | polymerase ribozyme fitness (log ratio)
A49U U55C U56A A73U C93U G117C | ≤ -4.2
C51U G94U | -1.45
G50A C79A | ≤ -4.2
C51A A52C C75A G83U G88C A91G C123G G126U A147U U151G | ≤ -4.2
G50C G71A C95U G117C G143A | ≤ -4.2
G50A C93A A97G C99U U109G | ≤ -4.2
G50A G94U | -3.07
A49G G68U G133A | ≤ -4.2
G50U G83A A97U A98U | 0.0748
G50U A73U G84A U109G | ≤ -4.2
G50A U55G C87U | -1.24
G50U G83A C95G A107G | ≤ -4.2
C51U C85U | -0.8
G50C A137C G141U | ≤ -4.2
A52C A73G A138G | ≤ -4.2
G50A U61A G81U G83C A91U U104G G143A | ≤ -4.2
A52C A60C | -2.71
C51A C96U A97U | -2.73
C51G C85A G92U C95A | ≤ -4.2
G50A C108A G124U U148G | ≤ -4.2
C51G G80A G84U G140C | ≤ -4.2
A49G U55G G88A U139C U145A | ≤ -4.2
G50U U56A A91G C116U | -2.81
